Assay results published in patent US7223556 (Harvard, dated 2007).

Tests used:
[1] = target: EE-tagged HPV16-E2 (human papillomavirus type 16) (UniProt P03120); assay: cell-based or functional assay
[2] = target: Skp1p (Saccharomyces cerevisiae) (UniProt P52286); assay: cell-based or functional assay
[3] = target: retinoblastoma tumor suppressor protein (pRB) (UniProt P06400); assay: cell-based or functional assay
[4] = target: T1, retinoblastoma tumor suppressor protein (pRB) (UniProt P06400 1-928); assay: co-immunoprecipitation of in vitro translated 35S-labelled proteins with anti-Flag M2 antibody, SDS PAGE
T1 construct: For the co-immunoprecipitation it was translated in vitro and 35S-labelled; In yeast Y81 cells it was expressed from plasmid p2202TRB
T1 sequence: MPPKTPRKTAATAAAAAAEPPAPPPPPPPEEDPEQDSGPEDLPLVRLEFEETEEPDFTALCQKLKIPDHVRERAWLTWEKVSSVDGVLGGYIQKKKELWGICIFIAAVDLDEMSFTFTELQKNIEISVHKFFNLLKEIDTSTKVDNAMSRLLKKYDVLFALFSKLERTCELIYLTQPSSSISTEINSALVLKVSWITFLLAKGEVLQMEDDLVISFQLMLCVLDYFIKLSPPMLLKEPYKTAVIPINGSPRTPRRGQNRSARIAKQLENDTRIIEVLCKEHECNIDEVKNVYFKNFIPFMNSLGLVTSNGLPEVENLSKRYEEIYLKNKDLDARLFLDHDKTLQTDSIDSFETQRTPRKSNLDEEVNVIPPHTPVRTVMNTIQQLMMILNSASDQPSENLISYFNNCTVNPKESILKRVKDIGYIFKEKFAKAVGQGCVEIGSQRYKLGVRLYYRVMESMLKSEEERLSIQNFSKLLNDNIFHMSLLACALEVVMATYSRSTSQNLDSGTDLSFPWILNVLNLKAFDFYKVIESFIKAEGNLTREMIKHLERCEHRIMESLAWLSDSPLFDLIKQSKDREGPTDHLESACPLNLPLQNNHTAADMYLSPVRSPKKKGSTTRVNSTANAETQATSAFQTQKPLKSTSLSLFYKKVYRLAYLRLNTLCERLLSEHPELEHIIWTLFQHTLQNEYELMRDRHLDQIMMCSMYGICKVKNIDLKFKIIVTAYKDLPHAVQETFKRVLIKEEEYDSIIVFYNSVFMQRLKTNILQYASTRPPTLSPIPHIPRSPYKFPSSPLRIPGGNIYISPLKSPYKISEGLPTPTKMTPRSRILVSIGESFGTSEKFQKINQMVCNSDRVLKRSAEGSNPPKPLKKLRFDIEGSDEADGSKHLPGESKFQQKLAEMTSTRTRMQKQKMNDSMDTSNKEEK

Sequence of Skp1p (Saccharomyces cerevisiae) (P52286 whole entry): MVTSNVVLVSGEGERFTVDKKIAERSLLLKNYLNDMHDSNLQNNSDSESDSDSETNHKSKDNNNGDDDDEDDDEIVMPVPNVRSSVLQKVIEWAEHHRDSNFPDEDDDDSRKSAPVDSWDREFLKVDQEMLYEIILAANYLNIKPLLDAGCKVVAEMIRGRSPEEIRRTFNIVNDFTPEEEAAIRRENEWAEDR
Sequence of EE-tagged HPV16-E2 (human papillomavirus type 16) (P03120 whole entry): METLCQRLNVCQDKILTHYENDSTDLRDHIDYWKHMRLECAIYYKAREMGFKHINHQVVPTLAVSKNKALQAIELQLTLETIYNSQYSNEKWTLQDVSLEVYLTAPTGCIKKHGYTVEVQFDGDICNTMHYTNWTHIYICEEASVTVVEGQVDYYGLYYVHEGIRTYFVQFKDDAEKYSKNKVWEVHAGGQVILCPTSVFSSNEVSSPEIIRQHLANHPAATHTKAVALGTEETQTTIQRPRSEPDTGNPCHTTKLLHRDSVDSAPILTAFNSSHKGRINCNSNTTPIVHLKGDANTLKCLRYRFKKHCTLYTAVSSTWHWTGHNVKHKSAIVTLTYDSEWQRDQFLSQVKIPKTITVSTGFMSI

Cdc4p^F/WD-E1C (from UniProt P03114 424-649)
half life of EE-E2 after promoter shut-off in INVSc1 yeast cells [1]: 16 min

Cdc4p(G300D) (from UniProt P07834 1-779)
half life of the mutant Cdc4p protein after promoter shut-off in KY130 cells [2]: > 60 min

Cdc4p^F/WD-βgal (from UniProt P00722 10-1024)
half life of the βgal fusion after promoter shut-off in KY130 cells [2]: 35 min

Cdc4p^F/WD-E7N (from UniProt P03129 2-35)
half life of pRB after promoter shut-off in Y81 yeast cells [3]: 70 minutes

Cdc4p(ΔF)
half life of the mutant Cdc4p protein after promoter shut-off in KY130 cells [2]: > 60 min

B1: Flag-tagged βTrCP (other)
chain: MDPAEAVLQEKALKFMNSSEREDCNNGEPPRKIIPEKNSLRQTYNSCARLCLNQETVCLASTAMKTENCVAKTKLANGTSSMIVPKQRKLSASYEKEKELCVKYFEQWSESDQVEFVEHLISQMCHYQHGHINSYLKPMLQRDFITALPARGLDHIAENILSYLDAKSLCAAELVCKEWYRVTSDGMLWKKLIERMVRTDSLWRGLAERRGWGQYLFKNKPPDGNAPPNSFYRALYPKIIQDIETIESNWRCGRHSLQRIHCRSETSKGVYCLQYDDQKIVSGLRDNTIKIWDKNTLECKRILTGHTGSVLCLQYDERVIITGSSDSTVRVWDVNTGEMLNTLIHHCEAVLHLRFNNGMMVTCSKDRSIAVWDMASPTDITLRRVLVGHRAAVNVVDFDDKYIVSASGDRTIKVWNTSTCEFVRTLNGHKRGIACLQYRDRLVVSGSSDNTIRLWDIECGACLRVLEGHEELVRCIRFDNKRIVSGAYDGKIKVWDLVAALDPRAPAGTLCLRTLVEHSGRVFRLQFDEFQIVSSSHDDTILIWDFLNDPAAQAEPPRSPSRTYTYISR
notes: Untagged βTrCP in lane 1 is the control for the anti-Flag immunoprecipitation; also called F-βTrCP; F-TrCP
binding result [4]: no binding
